Values joined by “and” are separate entries in the source; they are usually repeats but may differ in a detail not shown here. Equal values may be shown once.
B1: Major Basic Protein (MBP) purified from human eosinophils (protein, UniProt P13727 106-222, looked up)
chain: TCRYLLVRSLQTFSQAWFTCRRCYRGNLVSIHNFNINYRIQCSVSALNQGQVWIGGRITGSGRCRRFQWVDGSRWNFAYWAAHQPWSRGGHCVALCTRGGHWRRAHCLRRLPFICSY

Target: human heparanase, active 50 kDa form (human) (UniProt Q9Y251)
Experiment: cell-based or functional assay

UniProt Q9Y251, sequence (Q9Y251 158-543 limits assumed, form in doubt): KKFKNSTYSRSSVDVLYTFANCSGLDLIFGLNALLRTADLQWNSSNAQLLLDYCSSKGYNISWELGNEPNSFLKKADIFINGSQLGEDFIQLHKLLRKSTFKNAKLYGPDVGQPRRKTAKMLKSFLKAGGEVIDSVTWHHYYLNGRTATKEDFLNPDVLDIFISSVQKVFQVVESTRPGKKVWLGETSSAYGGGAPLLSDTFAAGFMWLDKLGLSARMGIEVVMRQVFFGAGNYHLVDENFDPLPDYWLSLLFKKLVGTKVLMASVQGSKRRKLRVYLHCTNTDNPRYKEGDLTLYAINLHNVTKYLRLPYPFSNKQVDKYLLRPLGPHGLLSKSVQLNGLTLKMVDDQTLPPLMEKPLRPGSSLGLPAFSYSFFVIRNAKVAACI

| Molecule | inhibition of heparanase activity (35S-labeled ECM degradation) | inhibition of heparanase activity (release of HS degradation fragments from 35S-labeled ECM, gel filtration) | inhibition of recombinant heparanase activity by eosinophil lysates (cellular MBP), 35S-labeled ECM degradation (fold excess of MBP over heparanase) |
| --- | --- | --- | --- |
| myelin basic protein | 20 ng/mL | – | – |
| poly-L-arginine (peptide) | 5 ng/mL and 13 ng/mL | – | – |
| B1 | – | 80 nM and 200 nM | 2.5 |

— US20050192209A1
